Reference: patent US20150361464A1, “METHODS, REAGENTS AND CELLS FOR BIOSYNTHESIZING COMPOUNDS” (INVISTA North America S.á r.l., priority 2014, published 2015)

Columns and labels:
[1] = ω-transaminase enzyme activity assay, reverse direction (5-aminopentanoate to glutarate semialdehyde), cell free extract; format: biochemical; settings: 10 mM 5-aminopentanoate, 10 mM pyruvate, pH 7.5, 25° C., 4 hours; against the empty vector control; FIG. 15
Description: (§1) A nucleotide sequence encoding an N-terminal His-tag was added to the genes from Chromobacterium violaceum and Rhodobacter sphaeroides encoding the ω-transaminases of SEQ ID NOs: 8 and 10 respectively (see FIG. 10) such that N-terminal HIS tagged ω-transaminases could be produced. Each of the resulting modified genes was cloned into a pET21a expression vector under control of the T7 promoter and each expression vector was transformed into a BL21[DE3] E. coli host. The resulting recombinant E. coli strains were cultivated at 37° C. in a 250 mL shake flask culture containing 50 mL LB media and antibiotic selection pressure, with shaking at 230 rpm. Each culture was induced overnight at 16° C. using 1 mM IPTG.
(§2) The pellet from each induced shake flask culture was harvested via centrifugation. Each pellet was resuspended and lysed via sonication. The cell debris was separated from the supernatant via centrifugation and the cell free extract was used immediately in enzyme activity assays.
Enzyme activity assays in the reverse direction (i.e., 5-aminopentanoate to glutarate semialdehyde) were performed in a buffer composed of a final concentration of 50 mM HEPES buffer (pH=7.5), 10 mM 5-aminopentanoate, 10 mM pyruvate and 100 μM pyridoxyl 5′ phosphate. […] The formation of L-alanine from pyruvate was quantified via RP-HPLC.

[2] = ω-transaminase enzyme activity assay, forward direction (glutarate semialdehyde to 5-aminopentanoate), cell free extract; format: biochemical; settings: conclusion from reverse and forward direction assays
Description: as §1, §2
Enzyme activity in the forward direction (i.e., glutarate semialdehyde to 5-aminopentanoate) was confirmed for the transaminase of SEQ ID NO: 10. Enzyme activity assays were performed in a buffer composed of a final concentration of 50 mM HEPES buffer (pH=7.5), 10 mM glutarate semialdehyde, 10 mM L-alanine and 100 μM pyridoxyl 5′ phosphate. Each enzyme activity assay reaction was initiated by adding a cell free extract of the ω-transaminase gene product or the empty vector control to the assay buffer containing the glutarate semialdehyde and incubated at 25° C. for 4 hours, with shaking at 250 rpm. The formation of pyruvate was quantified via RP-HPLC.

B1: SEQ ID NO: 8: Chromobacterium violaceum ω-transaminase, N-terminal HIS tagged, cell free extract (protein, listed as Chromobacterium violaceum)
chain: MQKQRTTSQWRELDAAHHLHPFTDTASLNQAGARVMTRGEGVYLWDSEGNKIIDGMAGLWCVNVGYGRKDFAEAARRQMEELPFYNTFFKTTHPAVVELSSLLAEVTPAGFDRVFYTNSGSESVDTMIRMVRRYWDVQGKPEKKTLIGRWNGYHGSTIGGASLGGMKYMHEQGDLPIPGMAHIEQPWWYKHGKDMTPDEFGVVAARWLEEKILEIGADKVAAFVGEPIQGAGGVIVPPATYWPEIERICRKYDVLLVADEVICGFGRTGEWFGHQHFGFQPDLFTAAKGLSSGYLPIGAVFVGKRVAEGLIAGGDFNHGFTYSGHPVCAAVAHANVAALRDEGIVQRVKDDIGPYMQKRWRETFSRFEHVDDVRGVGMVQAFTLVKNKAKRELFPDFGEIGTLCRDIFFRNNLIMRACGDHIVSAPPLVMTRAEVDEMLAVAERCLEEFEQTLKARGLA
modifications: N-terminal His tag
notes: Chromobacterium violaceum ω-transaminase, N-terminal HIS tagged, cell free extract
- acceptance of 5-aminopentanoate as substrate (formation of L-alanine from pyruvate, RP-HPLC) [1]: accepted 5-aminopentanoate as substrate
- acceptance of glutarate semialdehyde as substrate and synthesis of 5-aminopentanoate, concluded from reversibility of the ω-transaminase activity [2]: accepted glutarate semialdehyde as substrate and synthesized 5-aminopentanoate
